In US20210309759A1 (SUNSHINE GUOJIAN PHARMACEUTICAL SHANGHAI, published 2021):
One block for each binder: values may come before it. Ends that are not written are not given here. * marks the point of attachment. Biotin = O=C1N[C@H]2[C@H](CS[C@H]2CCCCC(=O)*)N1

Experiments:
[1] = molecular target: T1, HER2 on tumor cells with high HER2 expression (breast cancer cells BT474; SKBR3) (human, UniProt P04626 23-1255); test: FACS on BT474 cells
T1 construct: whole, on cells; Endogenous full-length receptor on human tumor cell lines; also called breast cancer cells BT474 (with high HER2 expression on the cell surface); HER2 in BT474 and SKBR3 cells

[2] = molecular target: T2, 495-510; test: peptide ELISA
T2 peptide: HTANRPEDECVGEGLA

[3] = molecular target: T3, peptide 3-4, bio-RPEDECVGEGLA (499-510); test: peptide ELISA
T3 peptide: Biotin-RPEDECVGEGLA

[4] = molecular target: T4, human HER2-ECD protein (1 to 652 amino acids of NP_004439.2, 6xHis tag at the C-terminus) (human, UniProt P04626 23-652); test: ELISA on coated human HER2-ECD
T4 construct: Homemade, expressed in CHO cells from HER2-ECD-His-pTT5; also called HER2-ECD-His; HER2-ECD-fl(1-652)

[5] = molecular target: T5, peptide 4-7 (D502A), bio-HTANRPEAECVGEGLA; test: ELISA on alanine scan biotin peptides
T5 peptide: Biotin-HTANRPEAECVGEGLA

[6] = molecular target: T6, peptide 4-10 (V505A), bio-HTANRPEDECAGEGLA; test: ELISA on alanine scan biotin peptides
T6 peptide: Biotin-HTANRPEDECAGEGLA

[7] = molecular target: T7, peptide 4-11 (E507A), bio-HTANRPEDECVGAGLA; test: ELISA on alanine scan biotin peptides
T7 peptide: Biotin-HTANRPEDECVGAGLA

[8] = molecular target: T8, peptide 4-12 (L509A), bio-HTANRPEDECVGEGAA; test: ELISA on alanine scan biotin peptides
T8 peptide: Biotin-HTANRPEDECVGEGAA

[9] = molecular target: T9, peptide 4-1, bio-ATANRPEDECVGEGLA; test: peptide ELISA, alanine scan
T9 peptide: Biotin-ATANRPEDECVGEGLA

[10] = molecular target: T10, peptide 4-2, bio-HAANRPEDECVGEGLA; test: peptide ELISA, alanine scan
T10 peptide: Biotin-HAANRPEDECVGEGLA

[11] = molecular target: T11, peptide 4-3, bio-HTAARPEDECVGEGLA; test: peptide ELISA, alanine scan
T11 peptide: Biotin-HTAARPEDECVGEGLA

[12] = molecular target: T12, peptide 4-4, bio-HTANAPEDECVGEGLA; test: peptide ELISA, alanine scan
T12 peptide: Biotin-HTANAPEDECVGEGLA

[13] = molecular target: T13, peptide 4-5, bio-HTANRAEDECVGEGLA; test: peptide ELISA, alanine scan
T13 peptide: Biotin-HTANRAEDECVGEGLA

[14] = molecular target: T14, peptide 4-6, bio-HTANRPADECVGEGLA; test: peptide ELISA, alanine scan
T14 peptide: Biotin-HTANRPADECVGEGLA

[15] = molecular target: T15, peptide 4-8, bio-HTANRPEDACVGEGLA; test: peptide ELISA, alanine scan
T15 peptide: Biotin-HTANRPEDACVGEGLA

[16] = molecular target: T16, peptide 4-9, bio-HTANRPEDEAVGEGLA; test: peptide ELISA, alanine scan
T16 peptide: Biotin-HTANRPEDEAVGEGLA

[17] = molecular target: T17, peptide HA-21, bio-HQALLHTANRPEDECVGEGLA (490-510) (N-terminal biotin); test: ELISA on biotin peptides of HER2-ECD DIII
T17 peptide: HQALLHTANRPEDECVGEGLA

[18] = molecular target: T18, HER2-ECD-D502A (human, UniProt P04626 23-652); test: ELISA on coated HER2-ECD-D502A; D502A mutant
T18 construct: Site-directed mutant of HER2-ECD-His-pTT5, expressed in HEK293E

[19] = molecular target: T19, HER2-ECD-E507A (human, UniProt P04626 23-652); test: ELISA on coated HER2-ECD-E507A; E507A mutant
T19 construct: Site-directed mutant of HER2-ECD-His-pTT5, expressed in HEK293E

[20] = molecular target: T4, human HER2-ECD protein (1 to 652 amino …); test: ELISA on coated HER2-ECD protein; wild-type HER2-ECD
[21] = molecular target: T20, HER2-ECD-DI-III; test: Western blot by the method of Example 3.2 (reduced-denatured protein)
T20 construct: Truncated human HER2-ECD construct; also called HER2-ECD-DI-DIII(1-510)
T20 receptor fragment: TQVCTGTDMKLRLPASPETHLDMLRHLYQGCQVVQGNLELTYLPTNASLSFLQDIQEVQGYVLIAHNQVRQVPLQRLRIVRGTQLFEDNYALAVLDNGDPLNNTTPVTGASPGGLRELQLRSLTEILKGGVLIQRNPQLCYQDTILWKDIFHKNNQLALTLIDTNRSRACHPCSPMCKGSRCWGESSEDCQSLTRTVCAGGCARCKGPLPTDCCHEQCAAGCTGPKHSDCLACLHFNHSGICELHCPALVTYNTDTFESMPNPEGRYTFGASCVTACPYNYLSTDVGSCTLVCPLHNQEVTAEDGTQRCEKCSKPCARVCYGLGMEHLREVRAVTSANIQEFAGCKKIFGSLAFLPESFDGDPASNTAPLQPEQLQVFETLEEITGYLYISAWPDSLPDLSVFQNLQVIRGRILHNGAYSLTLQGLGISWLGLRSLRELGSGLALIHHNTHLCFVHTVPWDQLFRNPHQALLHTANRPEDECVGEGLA

[22] = molecular target: T21, HER2-ECD-V505A (human, UniProt P04626 23-652); test: ELISA on coated HER2-ECD-V505A (printed HER2-ECD-E505A); V505A mutant (printed E505A)
T21 construct: Site-directed mutant of HER2-ECD-His-pTT5, expressed in HEK293E

[23] = molecular target: T4, human HER2-ECD protein (1 to 652 amino …); test: competitive ELISA on coated human HER2-ECD; competitor: biotinylated 19H6 (10 ng/mL, mixed 1:1)
[24] = molecular target: T4, human HER2-ECD protein (1 to 652 amino …); test: ELISA on coated human HER2-ECD; chimeric 19H6-ch, FIG. 22 experiment
[25] = molecular target: T22, HER2-ECD protein of rat (rat, UniProt P06494 23-654); test: ELISA, antigen coated at 0.2 µg/well
T22 construct: extracellular domain; Bought; also called Rat-HER2-ECD

[26] = molecular target: T23, human HER1 protein (human, UniProt P00533 25-645); test: ELISA, antigen coated at 0.2 µg/well
T23 construct: Bought

[27] = molecular target: T24, human HER3 protein (human, UniProt P21860 20-643); test: ELISA, antigen coated at 0.2 µg/well
T24 construct: Bought

[28] = molecular target: T25, human HER4 protein (human, UniProt Q15303 26-649, limits assumed); test: ELISA, antigen coated at 0.2 µg/well
T25 construct: Bought
T25 sequence (looked up): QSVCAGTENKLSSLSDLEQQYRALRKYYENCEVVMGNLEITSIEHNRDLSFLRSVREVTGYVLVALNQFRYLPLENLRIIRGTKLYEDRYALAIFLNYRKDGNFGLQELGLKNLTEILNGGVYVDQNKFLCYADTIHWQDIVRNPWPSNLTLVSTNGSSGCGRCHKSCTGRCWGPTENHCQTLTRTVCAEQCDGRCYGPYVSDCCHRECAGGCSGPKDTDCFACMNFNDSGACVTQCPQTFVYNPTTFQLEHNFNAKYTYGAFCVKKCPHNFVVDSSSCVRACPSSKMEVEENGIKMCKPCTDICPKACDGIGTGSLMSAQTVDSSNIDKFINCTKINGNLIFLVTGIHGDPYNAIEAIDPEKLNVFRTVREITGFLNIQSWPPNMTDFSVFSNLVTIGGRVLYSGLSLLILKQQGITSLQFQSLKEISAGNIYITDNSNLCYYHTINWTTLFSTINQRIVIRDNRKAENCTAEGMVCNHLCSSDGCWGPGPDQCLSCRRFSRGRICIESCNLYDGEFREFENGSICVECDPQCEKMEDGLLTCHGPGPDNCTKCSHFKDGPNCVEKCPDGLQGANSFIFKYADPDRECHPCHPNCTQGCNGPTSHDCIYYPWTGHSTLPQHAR

[29] = molecular target: T26, HER2-ECD protein of cynomolgus monkey (cynomolgus monkey, UniProt A0A2K5WUT7 1-622); test: ELISA, Cyno-HER2-ECD coated at 0.2 µg/well
T26 construct: extracellular domain; Bought; also called Cyno-HER2-ECD

[30] = molecular target: T4, human HER2-ECD protein (1 to 652 amino …); test: ELISA on coated human HER2-ECD; humanized 19H6-Hu
[31] = molecular target: T4, human HER2-ECD protein (1 to 652 amino …); test: Biacore, antibody captured on Protein A chip, HER2-ECD as analyte
[32] = molecular target: T4, human HER2-ECD protein (1 to 652 amino …); test: ELISA on coated protein labelled HER2 on the sheet (taken as the human HER2-ECD of paragraph 112), positive control of the selectivity assay of Example 7
[33] = molecular target: T4, human HER2-ECD protein (1 to 652 amino …); test: ELISA on coated human HER2-ECD; humanized 19H6-graft

EC50 [1]: 1.1 nM
binding result [2]: binds
binding result [3]: binds
EC50 [4]: 0.28 nM
binding result [5]: no binding
binding result [6]: no binding
binding result [7]: no binding
binding result [8]: binds
binding result [9]: binds
binding result [10]: binds
binding result [11]: binds
binding result [12]: binds
binding result [13]: binds
binding result [14]: binds
binding result [15]: binds
binding result [16]: binds
binding result [17]: binds
EC50 [18]: 0.05 nM
EC50 [19]: 0.867 nM
EC50 [20]: 0.041 nM
binding result [21]: binds
EC50 [22]: 0.038 nM
IC50 (read off the curve) [23]: ~1 nM
B1: murine anti-human HER2 monoclonal antibody 19H6 (antibody, V domains shown)
VH: QVQLQQSGPELVRPGESVKISCKGSGYTFTDYAIHWVKQSHAKSLEWIGVFSIYYENINYNQKFKGKATMTVDKSSSTAYLDLARLTSEDSAIYYCARRDGGTINYWGQGTSVTVSS
VL: DVVMTQTPLSLPVSLGDQASISCRSSQSLVHSNGNTYLHWYLQKPGQSPKLLIYKVSNRFSGVPDRFSGSGSGTDFTLKISRVEAEDLGVYFCSQSTHIPWTFGGGTKLEIK
notes: Hybridoma-derived mouse antibody purified on Protein G; also called murine antibody 19H6

EC50 [1]: 1.5 nM
EC50 [4]: 0.1 nM
EC50 [24]: 0.05 nM
B2: chimeric antibody 19H6-ch (antibody, human IgG1, kappa, V domains shown)
VH: QVQLQQSGPELVRPGESVKISCKGSGYTFTDYAIHWVKQSHAKSLEWIGVFSIYYENINYNQKFKGKATMTVDKSSSTAYLDLARLTSEDSAIYYCARRDGGTINYWGQGTSVTVSS
VL: DVVMTQTPLSLPVSLGDQASISCRSSQSLVHSNGNTYLHWYLQKPGQSPKLLIYKVSNRFSGVPDRFSGSGSGTDFTLKISRVEAEDLGVYFCSQSTHIPWTFGGGTKLEIKR
notes: 19H6 variable regions spliced with human IgG1 and kappa constant regions; expressed in HEK-293E

EC50 [1]: 1.9 nM
binding result [25]: no binding
binding result [26]: no binding
binding result [27]: no binding
binding result [28]: no binding
EC50 [29]: 0.1 nM
EC50 [30]: 0.06 nM
Kd [31]: 0.713 nM
koff [31]: 0.000111 s⁻¹
kon [31]: 155000 M⁻¹ s⁻¹
EC50 (read off the curve) [32]: ~0.1 nM
B3: humanized antibody 19H6-Hu (antibody, human IgG1, kappa, V domains shown)
VH: QVQLVQSGAEVKKPGASVKVSCKGSGYTFTDYAIHWVRQAPGQSLEWIGVFSIYYENINYNQKFKGRATMTVDKSTSTAYMELRSLRSDDTAVYYCARRDGGTINYWGQGTLVTVSS
VL: DVVMTQSPLSLPVTLGQPASISCRSSQSLVHSNGNTYLHWYQQRPGQSPRLLIYKVSNRFSGVPDRFSGSGSGTDFTLKISRVEAEDVGVYFCSQSTHIPWTFGQGTKVEIKR

EC50 [33]: 0.5 nM
B4: humanized antibody 19H6-graft (antibody, human IgG1, kappa, V domains shown)
VH: QVQLVQSGAEVKKPGASVKVSCKASGYTFTDYAIHWVRQAPGQGLEWMGVFSIYYENINYNQKFKGRVTMTTDTSTSTAYMELRSLRSDDTAVYYCARRDGGTINYWGQGTLVTVSS
VL: DVVMTQSPLSLPVTLGQPASISCRSSQSLVHSNGNTYLHWFQQRPGQSPRRLIYKVSNRFSGVPDRFSGSGSGTDFTLKISRVEAEDVGVYYCSQSTHIPWTFGQGTKVEIKR
notes: Constant regions tied by the words 'The same constant region as that of 19H6-ch'
